In patent publication US20250136677A1 (ZOETIS SERVICES, published 2025):

Key:
[1] = target: T1, wildtype feline IL-31 protein (Feline_IL31_wildtype) (feline); assay: cell-based or functional assay
T1 chain: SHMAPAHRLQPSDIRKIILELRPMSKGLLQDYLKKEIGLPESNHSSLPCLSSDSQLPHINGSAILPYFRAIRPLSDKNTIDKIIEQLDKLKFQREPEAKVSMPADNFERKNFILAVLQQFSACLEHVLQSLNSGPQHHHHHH

[2] = target: T1, wildtype feline IL-31 protein …; assay: SPR (Biacore), feline IL-31 (SEQ ID NO 157)
Method: The affinity with which candidate mAbs bind canine and feline IL-31 was determined using surface plasmon resonance (SPR) on a Biacore system (Biocore Life Sciences (GE Healthcare), Uppsala, Sweden). To avoid affinity differences associated with differential surface preparation that can occur when immobilizing antibodies to surfaces; a strategy was employed where IL-31 was directly conjugated to the surface. Immobilization was obtained by amine coupling 5 μg/mL IL-31 using N-hydroxysuccinimide (NHS)/1-Ethyl-3-(3-dimethylaminopropyl) carbodiimide (EDC) chemistry. Chips were quenched with ethanolamine and the affinity with which all candidate mAbs bound to the immobilized IL-31 was evaluated. All curves were fit to a 1:1 model. […] Results for affinity measurements are described herein.
Cellular potency was assessed using feline IL-31 to stimulate pSTAT3 signalling in FCFW4 cells. IC₅₀ vlaues were calculated for each antibody as described previously in this application. […] It is worth noting that both antibodies are considered potent with IC₅₀s in the range of those antibodies previously described herein from the 15H05 lineage (FIG. 3).

[3] = target: T1, wildtype feline IL-31 protein …; assay: cell-based or functional assay
[4] = target: T2, canine IL-31 protein (Canine_IL31) (canine); assay: SPR (Biacore), IL-31 on chip, 1:1 fit
T2 chain: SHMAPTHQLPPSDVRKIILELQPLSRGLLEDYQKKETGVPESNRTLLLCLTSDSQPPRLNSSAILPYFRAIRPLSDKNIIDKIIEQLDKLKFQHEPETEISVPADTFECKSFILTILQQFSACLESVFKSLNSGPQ

[5] = target: T1, wildtype feline IL-31 protein …; assay: indirect ELISA, IL-31 protein coated
Method: (§1) For the indirect ELISA method, antibody binding to wildtype and feline IL-31 15H05 mutant proteins was assessed. All nine canine monoclonal antibodies (ZIL1, ZIL8, ZIL8, ZIL11, ZIL69, ZIL94, ZIL154, ZIL159, and ZIL171) were capable of binding to wildtype feline IL-31 and binding was impacted by mutations in the mAb 15H05 epitope region confirming the correct binding phenotype determined during the initial screening used to identify them. In comparison, the 11E12 antibody bound to the wild-type feline IL-31 and its binding was not impacted by the mutations in the 15H05 epitope region as evidenced by the data in FIG. 4. To confirm binding, biacore analysis was performed using canine, feline, equine, human, feline 15H05 mutant, and feline 11E12 mutant IL-31 proteins as surfaces and a single test concentration of antibody. Similar to ELISA observations, all antibodies tested bound to wildtype feline IL-31. In agreement with the data described above in this section, mouse antibodies 11E12 and 15H05 both bound to canine and feline IL-31 surfaces. Three additional antibodies where shown to have this dual binding property, ZIL69 (partial canine binding), ZIL94, and ZIL159. From this group of nine fully canine antibodies, only ZIL1 and ZIL9 cross-reacted with equine IL-31. Of note, antibody 15H05 was the only one of all assayed herein that bound to canine, feline, and equine IL-31 indicating some level of epitope conservation across the three species. In contrast, none of the antibodies described herein bound to human IL-31. Additional biacore surfaces were used to verify ELISA observations showing differential binding of antibodies to wildtype feline IL-31 and two proteins with mutations in the 15H05 (15H05 mutant) or 11E12 (11E12 mutant) epitopes. […] In agreement with the ELISA results, all fully canine antibodies were impacted by the 15H05 mutation with the exception of ZIL94, ZIL154, and ZIL171 (partially affected). Differing results can be attributed to differences in the two assay methodologies.

[6] = target: T3, mutant feline IL-31 15H05 protein (Feline_IL31_15H05_mutant) (feline); assay: indirect ELISA, IL-31 protein coated
T3 construct: also called feline 15H05 mutant; 15H05 IL-31 mutant
T3 chain: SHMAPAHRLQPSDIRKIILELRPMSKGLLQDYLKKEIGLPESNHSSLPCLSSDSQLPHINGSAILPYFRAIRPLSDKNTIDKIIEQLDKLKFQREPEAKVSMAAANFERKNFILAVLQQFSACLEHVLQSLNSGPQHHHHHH
Method: as §1

[7] = target: T1, wildtype feline IL-31 protein …; assay: SPR (Biacore), IL-31 on chip, 1:1 fit
Procedure, shortened: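 IL-31 was amine-coupled (NHS/EDC) to the chip at 5 μg/mL and quenched with ethanolamine, and candidate mAbs were flowed over it as analytes. Binding curves were fitted to a 1:1 model.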

[8] = target: T4, equine IL-31 protein (Equine_IL31) (equine); assay: SPR (Biacore), IL-31 surface, single antibody concentration
T4 construct: Recombinant equine IL-31
T4 chain: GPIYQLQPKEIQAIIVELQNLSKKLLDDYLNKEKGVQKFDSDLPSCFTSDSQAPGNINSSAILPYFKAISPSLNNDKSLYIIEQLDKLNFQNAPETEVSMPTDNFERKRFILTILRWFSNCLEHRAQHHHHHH
Method: (§2) For the indirect ELISA method, antibody binding to wildtype and feline IL-31 15H05 mutant proteins was assessed. All nine canine monoclonal antibodies (ZIL1, ZIL8, ZIL8, ZIL11, ZIL69, ZIL94, ZIL154, ZIL159, and ZIL171) were capable of binding to wildtype feline IL-31 and binding was impacted by mutations in the mAb 15H05 epitope region confirming the correct binding phenotype determined during the initial screening used to identify them. In comparison, the 11E12 antibody bound to the wild-type feline IL-31 and its binding was not impacted by the mutations in the 15H05 epitope region as evidenced by the data in FIG. 4. To confirm binding, biacore analysis was performed using canine, feline, equine, human, feline 15H05 mutant, and feline 11E12 mutant IL-31 proteins as surfaces and a single test concentration of antibody. Similar to ELISA observations, all antibodies tested bound to wildtype feline IL-31. In agreement with the data described above in this section, mouse antibodies 11E12 and 15H05 both bound to canine and feline IL-31 surfaces. Three additional antibodies where shown to have this dual binding property, ZIL69 (partial canine binding), ZIL94, and ZIL159. From this group of nine fully canine antibodies, only ZIL1 and ZIL9 cross-reacted with equine IL-31. Of note, antibody 15H05 was the only one of all assayed herein that bound to canine, feline, and equine IL-31 indicating some level of epitope conservation across the three species. In contrast, none of the antibodies described herein bound to human IL-31. Additional biacore surfaces were used to verify ELISA observations showing differential binding of antibodies to wildtype feline IL-31 and two proteins with mutations in the 15H05 (15H05 mutant) or 11E12 (11E12 mutant) epitopes.

human IL-31 = target: T5, human IL-31 (human, UniProt Q6EBC2 24-164); assay: as above
T5 sequence: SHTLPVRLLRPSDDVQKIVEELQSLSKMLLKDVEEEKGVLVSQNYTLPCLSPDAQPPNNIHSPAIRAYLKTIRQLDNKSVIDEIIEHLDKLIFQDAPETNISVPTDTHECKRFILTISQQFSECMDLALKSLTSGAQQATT
Method: as §2

[9] = target: T2, canine IL-31 protein (Canine_IL31)
[10] = target: T1, wildtype feline IL-31 protein …; assay: cell-based or functional assay
[11] = target: T2, canine IL-31 protein (Canine_IL31); assay: cell-based or functional assay
[12] = target: T6, wildtype feline IL-31 protein (Feline_IL31_wildtype) (feline)
T6 sequence: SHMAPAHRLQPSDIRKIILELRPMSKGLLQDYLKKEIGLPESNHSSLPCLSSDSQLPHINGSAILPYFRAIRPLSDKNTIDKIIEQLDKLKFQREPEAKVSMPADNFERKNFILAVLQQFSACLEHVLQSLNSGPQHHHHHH

[13] = target: T6, wildtype feline IL-31 protein (Feline_IL31_wildtype) (feline); assay: Biacore, feline IL-31 chip, mAb 100 nM, share of points within parent mean +/-3 SD

B1: ZTS-5865 (antibody, V domains shown)
VH: DVQLVESGGDLVKPGGSLRLTCVASGFTFSDYAMNWVRQAPGKGLQWVAGIDSVGSGTSYADSVKGRFTISRDNAKNTLYLQMSGLKTEDTATYYCASGFPGSFEHWGQGTLVTVSS
VL: QSVLTQPSSVSGTLGQRITISCTGSSSNIGSGYVGWYQQVPGMGPKTVIYYNSDRPSGVPDRFSGSKSGSSGTLTITGLQAEDEADYYCSVYDRTFNAVFGGGTHLTVLG
notes: see recheck
- IC50, inhibition of feline IL-31 induced pSTAT3 in feline FCWF4 cells [1]: 9.08 µg/ml
- Kd [2]: 2.12 nM
- kon [2]: 76200 M⁻¹ s⁻¹

B2: mouse anti IL-31 antibody 11E12 (antibody, V domains shown)
VH: QVQLQQSGAELVKPGASVKLSCKASGYTFKYYDINWVRQRPEQGLEWIGWIFPGDGGTKYNETFKGKATLTTDKSSSTAYMQLSRLTSEDSAVYFCARGGTSVIRDAMDYWGQGTSVTVSS
VL: DIVLTQSPASLAVSLGQRATISCRASESVDNYGISFMHWYQQKPGQPPKLLIYRASNLESGIPARFSGSGSRTDFTLTINPVETDDVATYYCQQSNKDPLTFGAGTKLELK
notes: Mouse monoclonal comparison antibody; also called MU-11E12; mouse 11E12
- IC50, inhibition of feline IL-31-induced STAT3 phosphorylation, canine DH82 cells [3]: 2.47 µg/mL
- IC50, inhibition of feline IL-31-induced STAT3 phosphorylation, feline FCWF4 cells [3]: 2.01 µg/mL
- Kd [4]: 0.000763 nM
- koff [4]: 4.8e-07 s⁻¹
- kon [4]: 629000 M⁻¹ s⁻¹
- ELISA OD [5]: 1.15 OD
- ELISA OD [6]: 1.33 OD
- Kd [7]: 0.738 nM
- koff [7]: 0.000123 s⁻¹
- kon [7]: 167000 M⁻¹ s⁻¹
- binding result [8]: no binding
- binding result (human IL-31): no binding

B3: ZIL94 (recombinant fully canine antibody) (antibody, V domains shown)
VH: EVQLVDSGGDLVKPGGSLRLSCVASGFTFSTYFMSWVRQAPGRGLQWVALISSDGSGTYYADAVKGRFTISRDNAKNTLYLQMNSLRAEDTAMYYCAIFWRAFNDWGQGTLVTVSS
VL: QTVVIQEPSLSVSPGGTVTLTCGLNSGSVSTSNYPGWYQQTRGRTPRTIIYDTGSRPSGVPNRFSGSISGNKAALTITGAQPEDEADYYCSLYTDSDILVFGGGTHLTVLR
notes: also called CAN-ZIL94
- ELISA OD [5]: 1.67 OD
- ELISA OD [6]: 1.3 OD
- binding result [8]: no binding

B4: 15H05 mouse:canine chimera (antibody)
heavy: QVQLQQSAAELARPGASVKMSCKTSGYTFTSYTIHWIKQRPGQGLEWIGNINPTSGYTENNQRFKDKTTLTVDRSSNTAYLQLHSLTSEDSAVYFCARWGFKYDGEWSFDVWGAGTTVTVSSASTTAPSVFPLAPSCGSTSGSTVALACLVSGYFPEPVTVSWNSGSLTSGVHTFPSVLQSSGLYSLSSMVTVPSSRWPSETFTCNVAHPASKTKVDKPVPKRENGRVPRPPDCPKCPAPEMLGGPSVFIFPPKPKDTLLIARTPEVTCVVVDLDPEDPEVQISWFVDGKQMQTAKTQPREEQFNGTYRVVSVLPIGHQDWLKGKQFTCKVNNKALPSPIERTISKARGQAHQPSVYVLPPSREELSKNTVSLTCLIKDFFPPDIDVEWQSNGQQEPESKYRTTPPQLDEDGSYFLYSKLSVDKSRWQRGDTFICAVMHEALHNHYTQESLSHSPGK
light: DIQMNQSPSSLSASLGDTITVTCRASQGISIWLSWYQQKPGNIPKVLINKASNLHIGVPPRFSGSGSGTHFTLTITSLQPEDIATYYCLQSQTYPLTFGGGTKLEINRNDAQPAVYLFQPSPDQLHTGSASVVCLLNSFYPKDINVKWKVDGVIQDTGIQESVTEQDKDSTYSLSSTLTMSSTEYLSHELYSCEITHKSLPSTLIKSFQRSEC
- IC50, inhibition of canine IL-31-induced STAT3 phosphorylation, canine DH82 cells [9]: 12.7 µg/mL
- IC50, feline IL-31 signaling on the canine DH82 cell line (pSTAT3) [10]: 0.71 µg/ml
- IC50 against canine IL-31 (pSTAT3; cell type not stated for this pair of values) [11]: 12.5 µg/ml
- IC50, inhibition of feline IL-31-induced STAT3 phosphorylation, feline FCWF4 cells [3]: 3.11 µg/mL

B5: A14 (antibody, V domains shown)
VH: QVLLVQSGAEVRTPGASVKIFCKASGYSFTSYTIHWLRQAPAQGLEWMGNINPTSGYTENNQRFKDRLTLTADTSTNTAYMELSSLRSADTAMYYCARWGFKYDGEWSFDVWGAGTTVTVSS
VL: EIQMTQSPSSLSASPGDRVTITCRASQGISIWLSWYQQKPGNIPKVLIAKASNLHIGVPSRFSGSGSGTDFTLTISSLEPEDAATYYCLQSQTYPLTFGGGTKLEIK
- % Inhibition Relative to Parent (pSTAT, FCWF-4 cells) [12]: -5.4%
- Binding Similarity score [13]: 8.4

B6: A22 (antibody, V domains shown)
VH: QVLLVQSGAEVRTPGASVKIFCKASGYSFTSYTIHWLRQAPAQGLEWMGNINPTSGYTENNQRFKDRLTLTADTSTNTAYMELSSLRSADTAMYYCARWGFKYDGEWSFDVWGAGTTVTVSS
VL: EIQMTQSPSSLSASPGDRVTITCRASQGISIWLSWYQQKPGNIPKVLINKASNLHIGVPSRFSGSGSGTDFTLTISSLEPEDAATYYCLQAQTYPLTFGGGTKLEIK
- % Inhibition Relative to Parent (pSTAT, FCWF-4 cells) [12]: -4.3%
- Binding Similarity score [13]: 8.34
